The source of these data is PMC3458019.

The series is described as follows: mouse liver sections 10 min after injection, anti-FX/CD68 staining. To be noted: glycan lost; control: pd-FX.

With Factor X (FX): PNGase F (N-degly-FX), the localisation_or_trafficking entry is “changes, the localization of FX was predominantly to hepatocytes”.
